Data on 1 molecule can be found in article PMC10710730, “ProNGF promotes brain metastasis through TrkA/EphA2 induced Src activation in triple negative breast cancer cells” (Experimental Hematology & Oncology, 2023).

For this assay, the target named is T1, EphA2, endogenous in MDA-MB-231 cells (human (endogenous in MDA-MB-231), UniProt P29317 24-976).
T1 construct: EphA2 receptor, endogenous in the human breast cancer cell line MDA-MB-231; also called EphA2 receptor; source: endogenous, MDA-MB-231 cells
T1 sequence (P29317 24-976): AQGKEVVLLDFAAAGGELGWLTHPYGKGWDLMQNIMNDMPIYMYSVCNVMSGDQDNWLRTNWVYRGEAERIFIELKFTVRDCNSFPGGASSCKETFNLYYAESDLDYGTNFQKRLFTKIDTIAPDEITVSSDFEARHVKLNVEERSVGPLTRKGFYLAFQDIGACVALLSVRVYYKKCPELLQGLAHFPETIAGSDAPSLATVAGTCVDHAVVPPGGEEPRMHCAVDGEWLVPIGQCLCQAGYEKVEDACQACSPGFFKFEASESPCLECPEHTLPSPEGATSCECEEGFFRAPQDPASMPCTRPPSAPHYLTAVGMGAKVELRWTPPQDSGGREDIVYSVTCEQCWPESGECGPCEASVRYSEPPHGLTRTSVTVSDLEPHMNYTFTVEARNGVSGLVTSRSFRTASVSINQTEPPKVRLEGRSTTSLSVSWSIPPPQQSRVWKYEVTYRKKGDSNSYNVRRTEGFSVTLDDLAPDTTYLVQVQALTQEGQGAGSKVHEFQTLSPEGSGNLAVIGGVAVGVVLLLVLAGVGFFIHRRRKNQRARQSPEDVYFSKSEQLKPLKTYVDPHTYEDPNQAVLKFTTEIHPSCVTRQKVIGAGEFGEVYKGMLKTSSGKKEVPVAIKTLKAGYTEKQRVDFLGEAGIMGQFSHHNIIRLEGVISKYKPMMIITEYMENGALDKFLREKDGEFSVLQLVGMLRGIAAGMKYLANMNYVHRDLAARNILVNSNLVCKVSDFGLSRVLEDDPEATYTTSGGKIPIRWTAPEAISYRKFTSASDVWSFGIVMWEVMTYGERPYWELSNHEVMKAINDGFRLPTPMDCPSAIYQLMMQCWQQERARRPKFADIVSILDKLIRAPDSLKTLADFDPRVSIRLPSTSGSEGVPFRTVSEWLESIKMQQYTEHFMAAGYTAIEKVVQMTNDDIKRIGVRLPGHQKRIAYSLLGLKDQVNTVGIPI
In words: proximity ligation; Duolink in Situ-Red kit rabbit/goat on PFA-fixed cells on collagen I coated slides; TrkA/EphA2 red dots per cell counted; cells treated with proNGF (0.5 nM, 0 to 120 min), in MDA-MB-231 TrkA also with p75NTR siRNA. The note with it: partners not purified.

B1: TrkA (tyrosine kinase receptor TrkA, Tropomyosin kinase A), overexpressed in MDA-MB-231 cells (receptor)
chain: not shown
notes: TrkA, receptor of NGF and proNGF; also called MDA-MB-231-TrkA; MDA-MB-231 HA-TrkA
Consider B1, for which the “fold increase of TrkA/EphA2 PLA signal, proNGF 60 min over 0 min” value was 2 fold.
